These results are taken from paper PMC7360965 (The EMBO Journal, 2020).

Changes are numbered by the printed parent chain. Names may count otherwise. Ends that are not written are not given here.

The labels stand for the following.
B1: FAM-lifeAct-17 peptide (full-length lifeAct) (peptide)
peptide: MGVADLIKKFESISKEE
modifications: also: FAM label, position not given here
notes: also called lifeAct peptide; source: synthetic peptide (custom synthesized, LifeTein, USA)
B2: Human UTRN-ABD (amino acids 1-261) H29A (domain or fragment)
chain: MAKYGEHEASPDNGQNEFSDIIKSRSDEANDVQKKTFTKWINARFSKSGKPPINDMFTDLKDGRKLLDLLEGLTGTSLPKERGSTRVHALNNVNRVLQVLHQNNVELVNIGGTDIVDGNHKLTLGLLWSIILHWQVKDVMKDVMSDLQQTNSEKILLSWVRQTTRPYSQVNVLNFTTSWTDGLAFNAVLHRHKPDLFSWDKVVKMSPIERLEHAFSKAQTYLGIEKLLDPEDVAVQLPDKKSIIMYLTSLFEVLPQQVTID
notes: source: E. coli Rosetta DE3, purified (His-Trap, Superdex-200)
B3: Human UTRN-ABD (amino acids 1-261) V87D (domain or fragment)
chain: B2 chain with A29H, V87D
notes: also called UTRN-V87D; source: E. coli Rosetta DE3, purified (His-Trap, Superdex-200)
B4: Human UTRN-ABD (amino acids 1-261) I22D (domain or fragment)
chain: B2 chain with I22D, A29H
notes: as for B2
B5: Human UTRN-ABD (amino acids 1-261) N109A (domain or fragment)
chain: B2 chain with A29H, N109A
notes: as for B2
B6: FAM-lifeAct-14 peptide (carboxy-terminal truncated version of lifeAct) (peptide)
peptide: MGVADLIKKFESIS
modifications: not fully specified (N-terminus); also: FAM label, position not given here
notes: source: synthetic peptide (custom synthesized, LifeTein, USA)

This assay concerns the target F-actin (filamentous actin), actin purified from chicken breast (Gallus gallus) (chicken (Gallus gallus), UniProt P68139 1-377). In words: co-sedimentation. The following applies: both partners purified.
Molecule B1 returned a Kd of 2200 nM. In turn, B2 came in with a Kd of 2800 nM. The result for B3 reads greater than 100000 nM. Then B4, with 38000 nM. The result for B5 reads 55000 nM; that for B6, 1200 nM.

Usually Kd stands for the equilibrium constant for the complex coming apart. Low readings indicate higher affinity, high ones lower affinity.
